Data reported in the nanobody polyreactivity screen of Harvey et al. (2022).

Experiment: yeast display, Sf9 membrane polyspecificity reagent, FACS + sequencing; frameworks hold sequencing errors
How it was run: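 Polyreactivity labels are assigned by the sorting gate from which each nanobody was recovered. The gates were low and high (top ~1%), set on anti-HA fluorescence for expression and streptavidin fluorescence for reagent binding. Before sorting, galactose-induced (36–48 hours) yeast display cells were stained for 1 hour at 4 °C with 10% biotinylated, detergent-solubilized Sf9 membrane reagent.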

## QVQLVESGGGLVQAGGSLRLSCAASGFTVRKYAMGWYRQAPGKERELVAAITWSGGRTYYADSVKGRFTISRDNAKNTVSLQMNSLKPEDTAVYYCAAVIQSRKYDSWGQGTQVTVSS
  polyreactivity (PSR sort gate): high polyreactivity

## QVQLVESGGGLVQAGGSLRLSCAASGFTVSYNTMGWYRQAPGKERELVAAISARGTSTYYADSVKGRFTISRDNAKNTVYLQMNSLKPEDTAVYYCAAAYRIGSGYWGQGTQVTVSS
  polyreactivity (PSR sort gate): high polyreactivity

## QVQLVESGGGLVQAGGSLRLSCAASGFTVWLYAMGWYRQAPGKEREFVAAISTSGGSTYADSVKGRFTISRDNAKKTVYLQMNSLKPEDTAVYYCAADDLPSTGYDYWGQRTQVTVSS
  polyreactivity (PSR sort gate): low polyreactivity

## QVQLVESGGGLVQAGGSLRLSCAASGFTYFGYAMGWYRQAPGKERELVAAISTIDGDTYYADSVKGRFTISRDNAKNTVYLQMNSLKPEDTAVYYCAADDYIDGDDYWGQGTQVTVSS
  polyreactivity (PSR sort gate): low polyreactivity

## QVQLVESGGGLVQAGGSLRLSCAASGFTYIYYAMGWYRQAPGKERELVAAITSGGRTYYADSVKGRFTISRDNAKNTVYLQMNSLKPEDTAVYYCAKRFTLPLSEYDYWGQGTQVIVSS
  polyreactivity (PSR sort gate): high polyreactivity

## QVQLVESGGGLVQAGGSLRLSCAASGFTYRRYAMGWYRQAPGKERELVAAITWSGGSTYYADSVKGRITISRDNAKNTVYLQMNSLKPEDTAVYYCNKAYSPLYFSYNYWGQGTQVTVSS
  polyreactivity (PSR sort gate): high polyreactivity

## QVQLVESGGGLVQAGGSLRLSCAASGFTYYYYAMGWYRQAHGKERELVAAISTRDGNTYYADSVKGRFTISRDNAKNTVYLQMNSLKPEDTAVYYCAADYFRYYPYDYWGQGTLVTVSS
  polyreactivity (PSR sort gate): low polyreactivity

## QVQLVESGGGLVQAGGSLRLSCAASGFYYYAMGWYRQAPGKERELVAVITYSGGSTYYADSVKGRFTISRDNAKNTVYLQMNSLKPEDTAVYYCAADDYYVALPGLYDYWGQGTQVTVSS
  polyreactivity (PSR sort gate): low polyreactivity

## QVQLVESGGGLVQAGGSLRLSCAASGGICRYYAMGWYRPAPGKERELVAAISRGGNTKYADSVKGRFTISRDNAKNTVYLQMNSLKPEDTAVYYCNAYTYNRYYWGQGTQVTVSS
  polyreactivity (PSR sort gate): high polyreactivity

## QVQLVESGGGLVQAGGSLRLSCAASGGIFAPNAMGWYRQAPGKERELVAAISTGGGSTRYADSVKGRFTISRDNAKNTVYLQMNSLKPEDTAVYYCAATRVGVRRMDYWGQGTQVTVSS
  polyreactivity (PSR sort gate): low polyreactivity

## QVQLVESGGGLVQAGGSLRLSCAASGGIFAPYAMGWYRQAPGKERELVAAISSSDGSTYYADSVKGSFTISRDNAKNTVYLQMNSLKPEDTAVYYCAADYREDYGYWGQGTQVTVSS
  polyreactivity (PSR sort gate): low polyreactivity

## QVQLVESGGGLVQAGGSLRLSCAASGGIFAPYAMGWYRQAPGKERELVADITSDGGSTYYADSVKGRFTISRDNAKNTVYLQMNSLKPEDTAVYYCAAEQRYCWWGHPGDYWGQGTQVTVSS
  polyreactivity (PSR sort gate): low polyreactivity

## QVQLVESGGGLVQAGGSLRLSCAASGGIFAWYAMGWYRQAPGKERELVAAIDHSGGSTYYADSVKGRFTISRDNAKNTVYLQMNSLKPEDTAVYYCNAGYYGYWEKYDYWGQGTQVTVSS
  polyreactivity (PSR sort gate): low polyreactivity

## QVQLVESGGGLVQAGGSLRLSCAASGGIFDIYAMGWYRQAPGKERELVAAIRGSGGRTYYADSVKGRFTISRDNAKNTVYLQMNSLKPEDTAVYYCAARPSIVTGLRYGYWGQGTQVTVSS
  polyreactivity (PSR sort gate): high polyreactivity

## QVQLVESGGGLVQAGGSLRLSCAASGGIFDTNAMGWYRQAPGKEREFVAAITGSGGSTYYADSVKGRFTISRDNAKNTVYLQMNSLKPEDTAVYYCAAPLSYYWVYIVRYGYDYWGQGTQVTVSS
  polyreactivity (PSR sort gate): low polyreactivity

## QVQLVESGGGLVQAGGSLRLSCAASGGIFDTYAMGWYRQAPGKERELVAAISRRGGNTYYADSVKGRFTIARDNAKNTVYLQMNSLKPEDTAVYYCAAYYHGRMDYWGQGTQVTVSS
  polyreactivity (PSR sort gate): high polyreactivity

## QVQLVESGGGLVQAGGSLRLSCAASGGIFDTYVMGWYRQAPGKETELVAAISSSGSTTYADSVKGRFTISRDNAKNTVYLQMNSLKPEDTAVYYCNADYSTIWRYDYWGQGTQVTVSS
  polyreactivity (PSR sort gate): low polyreactivity

## QVQLVESGGGLVQAGGSLRLSCAASGGIFDYYAMGWYRQAPGKERELVAAIRGGGSTNYADSVKGRFTISRDNAKNTVYLQMNSLKPEDTAVYYCAKRAGPEYDYWGQGTQVTVSS
  polyreactivity (PSR sort gate): low polyreactivity

## QVQLVESGGGLVQAGGSLRLSCAASGGIFEAYVMGWYRQAPGKERELVAAISFRGGSTYYADSVKGRFTISRDNAKNTVYLQMNSLKPEDTAVYYCAADYRHQGYDYWGLGTQVTVSS
  polyreactivity (PSR sort gate): low polyreactivity

## QVQLVESGGGLVQAGGSLRLSCAASGGIFEAYVMGWYRQAPGKERELVAAISFRGGSTYYADSVQGRFTISRVNAKNSVYLQMNSLKPEDTAVYYCAADYRHQGYDYWGQGTQVTVSS
  polyreactivity (PSR sort gate): low polyreactivity

## QVQLVESGGGLVQAGGSLRLSCAASGGIFEYYAMGWYRQAPGKERELVAAINTGGNTYYADSVKGRFTISRDNAKNTVYLQMNSLKPEDTAVYYCATDPIWYGGYLSGTDYDYWGQGTQVTVSS
  polyreactivity (PSR sort gate): low polyreactivity

## QVQLVESGGGLVQAGGSLRLSCAASGGIFFINAMGWYRQAPGKERELIAAISISDGSTYYADSVKGRFTISRDNAKNTVYLQMNSLKTEDTAVYYCAADYDVLRLGYARIPLYDYWGQGTQVTVSS
  polyreactivity (PSR sort gate): low polyreactivity

## QVQLVESGGGLVQAGGSLRLSCAASGGIFFPNAMGWYRQAPGKERELGAAISWSAGSTYYADSVKGRFTISRDNAKNTVYLQMNSLKPEDTAVYYCAAAGSNYTVWYGYYYWGQGTQVTVSS
  polyreactivity (PSR sort gate): low polyreactivity

## QVQLVESGGGLVQAGGSLRLSCAASGGIFFPNAMGWYRQAPGKERELVAAISWSAGSTYYADSVKGRFTISRDNAKNTVYLQMNSLKPEDTAVYYCAAAGSNYTVWYGYYYWGQGTQVTVSS
  polyreactivity (PSR sort gate): low polyreactivity

## QVQLVESGGGLVQAGGSLRLSCAASGGIFFRNDMGWYRQAPGKERELVAAISSNGGSTYYADSVKGRFTISRDNAKNTVYLQMNSLKPEDTAVYYCNTGVYSSGGPLDYWGQGTQVTVSS
  polyreactivity (PSR sort gate): low polyreactivity

## QVQLVESGGGLVQAGGSLRLSCAASGGIFFSYAMGWYRQAPGKERELVAAIRTNGGTTYYADSVKGRFTISRDNAKNTVYLQMNRLKPEDTAVYYCAALPGGYYDRGEYDYWGQGTQVTVSS
  polyreactivity (PSR sort gate): low polyreactivity

## QVQLVESGGGLVQAGGSLRLSCAASGGIFGDYAMGWYRQEPGKERELVAAINSGDSTNYADSVKGRFTISRDNAKNTVYLQMNSLKPEDTAVYYCNARGYWVYYVEYDYWGQGTQVTVSS
  polyreactivity (PSR sort gate): low polyreactivity

## QVQLVESGGGLVQAGGSLRLSCAASGGIFGKYVMGWYRQAPGKERELVAGISRSAGITYYADSVKGRFTISRDNAKNTVYLQMNSLKPEDTAVYYCNARAWSYPSYHVGYDYWGQGTQVTVSS
  polyreactivity (PSR sort gate): high polyreactivity

## QVQLVESGGGLVQAGGSLRLSCAASGGIFGWYAMGWYRQAPGKERELVATITWRGGRTYYADSVKGRFTISRDNAKNTVYLQMNSLKPEDTAVYYCNAEWLWYDAGYRYTIRDSWGQGTQVTVSS
  polyreactivity (PSR sort gate): low polyreactivity

## QVQLVESGGGLVQAGGSLRLSCAASGGIFGYNMGWNRQAPGKEWELVAAITSGGITNYADSVKGRFTISRDNAKNTVYLQMNSLKPQDTAVNYCNRSPGGGKETVLGGDYWGQGTQVTVSS
  polyreactivity (PSR sort gate): low polyreactivity

## QVQLVESGGGLVQAGGSLRLSCAASGGIFIANAMGWYRQAPGKERELVAAISSSGGSTYYADSVKGRFTISRDNAKNTVYLQMNSLKPEDTAVYYCAARRSVRRGGDYYWGQGTQVTVSS
  polyreactivity (PSR sort gate): high polyreactivity

## QVQLVESGGGLVQAGGSLRLSCAASGGIFIFYAMGWYRQATGKERELVAASSNVSSTNYADSVKGRFTISRDNAKNTVYLQMNSLKPEDTAVYYCAAYYYYFYHKVIWYELDYWGQGTQVTVSS
  polyreactivity (PSR sort gate): low polyreactivity

## QVQLVESGGGLVQAGGSLRLSCAASGGIFIRYAMGSYRQAPGKERELVAAITQSGAGTNYADSVKGRFTISRDNAKNTVYLQMNSLKPEDTAVYYCAATGLPGYYAYDYWGQGTQVTVSS
  polyreactivity (PSR sort gate): low polyreactivity

## QVQLVESGGGLVQAGGSLRLSCAASGGIFKQYAMGWYRQAPGKERELVAAITWSGGSTYYADSVKGRFTISRDYAKNTVYLQMNSLKPEDTAVYYCAKDYVLFQYVDFQDDDYWGQGTQVTVSS
  polyreactivity (PSR sort gate): low polyreactivity

## QVQLVESGGGLVQAGGSLRLSCAASGGIFLPYAMGWYRQAPGKERELVAGITSVGSTYADSVKGRFTISRDNAKNTVYLQMNSLKPEDTAVYYCNADIYFVEYDYWGQGTQVTVSS
  polyreactivity (PSR sort gate): low polyreactivity

## QVQLVESGGGLVQAGGSLRLSCAASGGIFNYYAMGWYRPAPGKVRELVAAISASGGSTYYADSVKGRFTISRDNAKNTVYLQMNSLIQEDTAVYYCAAGLPYGYGYDYWGQGTQVTVSS
  polyreactivity (PSR sort gate): low polyreactivity

## QVQLVESGGGLVQAGGSLRLSCAASGGIFNYYAMGWYRQAPGKDRELVAAISASGGSTYYADSVKGRFTISRDYAKNTVYLQMNSLKPEDTAVYYCASGLPYGYGYDYWGQGTQVTVSS
  polyreactivity (PSR sort gate): low polyreactivity

## QVQLVESGGGLVQAGGSLRLSCAASGGIFPFNGMGWYRQAPGKERELVAAISSGGRTYYADSVKGRFTISRDNAKNTVYLQMNSLKPEDTAVYYCAARTSRYYYYPYAFYWGQGTQVTVSS
  polyreactivity (PSR sort gate): high polyreactivity

## QVQLVESGGGLVQAGGSLRLSCAASGGIFPGYAMGWYRQAPGKETELVAAISGSGSSTYYADSVKGRFTISRDHAKNTVYVQMNSLKPEDTAVYYCNVVTRVLPTRFDYWGQGTQVTVSS
  polyreactivity (PSR sort gate): high polyreactivity

## QVQLVESGGGLVQAGGSLRLSCAASGGIFPPNVMGWYRPAPGKETELVAANSRSGGSTYYADSVKGRFTISRDNAKNTVYLQMNSLTAEDTAVYYCAAANTQRGFRYDYWGQGTQVTVSS
  polyreactivity (PSR sort gate): high polyreactivity

## QVQLVESGGGLVQAGGSLRLSCAASGGIFPYYAMGWYRQAPGKERELVAGISQNDGRTYYADSVKGRFTISRDNAKNTVYLQMNSLIPDDTAVYYCATEYWYPRYGYWGQGTQVTVSS
  polyreactivity (PSR sort gate): low polyreactivity

## QVQLVESGGGLVQAGGSLRLSCAASGGIFQGYAMGWYRQAPGKERELVAAISRSGGRTYYADSVKGRFTISRDNAKKTVYLQMNSLKPEDTSVYYCAADIRLSKYDYRGQGTQVTVSS
  polyreactivity (PSR sort gate): high polyreactivity

## QVQLVESGGGLVQAGGSLRLSCAASGGIFQWYAMGWYRQAPGKVREFVAAITRRGGSTYYAYSVKGRFTISRDNAKNTVYLQMNSLKPEDTAVYYCAARPWADFDYWGQGTQVTVSS
  polyreactivity (PSR sort gate): low polyreactivity
